± gives the standard error. For part of these data: Fewer inactive variants are shown than the library holds.
B1: glmS ribozyme (parent)
chain: AUAAAAGCGCCAGAACUACAGAAAUGUAGUUGACGAGGAGGAGGUUUAUCGAAUUUUCGGCGGAUGCCUCCAAA

Key:
Details in all cases: with glucosamine-6-phosphate
glucosamine-6-phosphate [1] = variants of: B1; test: kcat; higher = faster cleavage; RNA array
Outline: (§1)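 Glucosamine-6-phosphate in HEPES/KCl/Mg(OAc)2 buffer, at 40 μM to 10 mM, was flowed over barcoded ribozyme variants transcribed in situ by E. coli RNA polymerase on sequenced MiSeq chips. Tracking was through a hybridised Cy3 probe at 37 °C. kobs, kcat and KM came from exponential decay fits and weighted Michaelis–Menten fits of normalised per-tile medians.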

glucosamine-6-phosphate [2] = variants of: B1; test: self-cleavage kobs at 640 uM GlcN6P; higher = faster cleavage; RNA array
Outline: as §1

glucosamine-6-phosphate [3] = variants of: B1; test: self-cleavage kobs at 2500 uM GlcN6P; higher = faster cleavage; RNA array
Outline: as §1

glucosamine-6-phosphate [4] = variants of: B1; test: self-cleavage kobs at 10000 uM GlcN6P; higher = faster cleavage; RNA array
Outline: as §1

glucosamine-6-phosphate [5] = variants of: B1; test: self-cleavage kobs at 40 uM GlcN6P; higher = faster cleavage; RNA array
Outline: as §1

glucosamine-6-phosphate [6] = variants of: B1; test: KM; higher = weaker cofactor use; RNA array
Outline: as §1

glucosamine-6-phosphate [7] = variants of: B1; test: self-cleavage kobs at 160 uM GlcN6P; higher = faster cleavage; RNA array
Outline: as §1

Variant | kcat (glucosamine-6-phosphate [1]) [s⁻¹] | self-cleavage kobs at 640 uM GlcN6P (glucosamine-6-phosphate [2]) [s⁻¹] | self-cleavage kobs at 2500 uM GlcN6P (glucosamine-6-phosphate [3]) [s⁻¹] | self-cleavage kobs at 10000 uM GlcN6P (glucosamine-6-phosphate [4]) [s⁻¹] | self-cleavage kobs at 40 uM GlcN6P (glucosamine-6-phosphate [5]) [s⁻¹] | KM (glucosamine-6-phosphate [6]) [µM] | self-cleavage kobs at 160 uM GlcN6P (glucosamine-6-phosphate [7]) [s⁻¹]
G37C A53U U69G | 3.72e-05 ± 1.7e-05 | 3.81e-05 ± 1.9e-05 | 6.4e-05 ± 2.4e-05 |  |  |  | 
A39G G59A | 0.000106 ± 2.1e-05 |  | 7.4e-05 ± 1.8e-05 | 8.4e-05 ± 1.1e-05 |  |  | 
A39C A64U | 1.4e-05 ± 2.1e-06 |  |  |  |  |  | 
U31G A52U G62U C67G | < 1e-05 |  | < 1e-05 | < 1e-05 | < 1e-05 |  | 
A33U G51A | < 1e-05 |  |  |  | < 1e-05 | 394 ± 130 | 
C34A U56G | < 1e-05 | < 1e-05 | < 1e-05 |  | < 1e-05 | 31 ± 12 | < 1e-05
A33G C50A | 1.1e-05 ± 2.3e-06 |  |  |  |  |  | 
G37C G60A C68U | 1.98e-05 ± 7.3e-06 |  |  |  |  |  | 
G32U C68U | 0.000114 ± 5.5e-06 | 2.88e-05 ± 8.9e-06 | 7.28e-05 ± 6.1e-06 | 9.76e-05 ± 6.8e-06 | < 1e-05 | 1540 ± 250 | 
A39C U57G | < 1e-05 |  |  |  |  |  | < 1e-05
C34A A36C U45A | < 1e-05 |  |  |  | < 1e-05 |  | < 1e-05
G37A C71A | 0.000462 ± 4.6e-05 | 0.000114 ± 2.7e-05 | 0.000331 ± 4.6e-05 | 0.000391 ± 3.8e-05 |  | 1520 ± 410 | 5.16e-05 ± 2e-05
A33C U54G | 0.00057 ± 0.00014 | 8.56e-05 ± 1.7e-05 | 0.000325 ± 3.8e-05 | 0.00043 ± 4.3e-05 |  |  | 8.91e-05 ± 2.6e-05
A39U U56C | 0.00176 ± 0.00058 | 0.000351 ± 5.4e-05 | 0.000804 ± 0.00019 | 0.00192 ± 0.0004 | 3.9e-05 ± 8.2e-06 | 2130 ± 950 | 0.000149 ± 2.8e-05
A39U U56G | 0.0257 ± 0.011 | 0.0021 ± 0.00031 | 0.00893 ± 0.0013 | 0.0139 ± 0.0021 | 0.000177 ± 2.7e-05 |  | 0.000402 ± 8.7e-05
A39G C70U C71U | 0.000401 ± 9.5e-05 | 0.000383 ± 8.4e-05 | 0.000283 ± 8.9e-05 | 0.000785 ± 0.00024 | 0.000107 ± 2.7e-05 |  | 0.000403 ± 0.00018
A39C A48G U55C | 6.53e-05 ± 4.8e-06 |  |  | 2.91e-05 ± 1.2e-05 | < 1e-05 |  | 
U31G G44U | 0.000237 ± 6.3e-05 |  | 4.98e-05 ± 1.3e-05 | 0.000129 ± 3e-05 |  | 8740 ± 3600 | 
G35U U54G C70A | 1.53e-05 ± 4.8e-06 |  | < 1e-05 |  |  |  | 

Variant | kcat (glucosamine-6-phosphate [1]) [s⁻¹] | self-cleavage kobs at 640 uM GlcN6P (glucosamine-6-phosphate [2]) [s⁻¹] | self-cleavage kobs at 2500 uM GlcN6P (glucosamine-6-phosphate [3]) [s⁻¹] | self-cleavage kobs at 10000 uM GlcN6P (glucosamine-6-phosphate [4]) [s⁻¹] | self-cleavage kobs at 40 uM GlcN6P (glucosamine-6-phosphate [5]) [s⁻¹] | KM (glucosamine-6-phosphate [6]) [µM] | self-cleavage kobs at 160 uM GlcN6P (glucosamine-6-phosphate [7]) [s⁻¹]
G38A U56A | < 1e-05 | < 1e-05 |  | < 1e-05 |  | 52.5 ± 11 | 
A39C C71A | 6.38e-05 ± 6.4e-06 |  | 4.16e-05 ± 1.1e-05 | 5.25e-05 ± 7.2e-06 |  | 1930 ± 720 | 
A39U U65G | 0.00369 ± 0.0011 | 0.000445 ± 9.7e-05 | 0.00164 ± 0.00021 | 0.0031 ± 0.00036 | 6.84e-05 ± 8.5e-06 | 2880 ± 1200 | 0.0002 ± 2.9e-05
G35U C67G | 1.19e-05 ± 2.3e-06 |  | < 1e-05 |  |  |  | 
A33G C70G | 1.95e-05 ± 6.8e-06 |  |  |  |  |  | 
A36U G59A G63U C71U | < 1e-05 |  | < 1e-05 |  |  |  | 
G32A G66A | 0.00312 ± 0.0006 | 0.000269 ± 6.9e-05 | 0.000911 ± 0.00018 | 0.0019 ± 0.00044 |  | 6290 ± 1700 | 
G32A G66U | 0.000161 ± 4.6e-05 | 4.96e-05 ± 1.7e-05 | 5.52e-05 ± 1.1e-05 | 0.000118 ± 1.6e-05 |  |  | 
A39G G40U | 0.0022 ± 0.00044 | 0.000551 ± 8.8e-05 | 0.0015 ± 0.00022 | 0.00197 ± 0.00022 | 9.64e-05 ± 1.6e-05 | 1420 ± 510 | 0.000207 ± 4.9e-05
A39G A64C | 0.000357 ± 5.4e-05 | 5.91e-05 ± 2.4e-05 | 0.000202 ± 5.3e-05 | 0.000267 ± 5.3e-05 |  | 2860 ± 950 | 
A39G A64U | 0.000215 ± 3.3e-05 | 3.77e-05 ± 1.6e-05 | 8.33e-05 ± 2.5e-05 | 0.000168 ± 5.5e-05 | < 1e-05 | 3440 ± 950 | 
G37C C70U | 2.69e-05 ± 6.4e-06 | 2.26e-05 ± 9.4e-06 | 1.7e-05 ± 5.8e-06 | 3.18e-05 ± 7.2e-06 |  |  | 
G38U A48G | < 1e-05 | < 1e-05 |  |  | < 1e-05 |  | 
G32U C67G | 0.000119 ± 1.3e-05 | 4.87e-05 ± 1.6e-05 | 6.69e-05 ± 1.2e-05 | 0.000107 ± 1.2e-05 |  | 1520 ± 570 | 
G32U G37A | 4.33e-05 ± 1.3e-05 |  |  | 3.21e-05 ± 6.6e-06 |  |  | 
A33U C50U | < 1e-05 |  | < 1e-05 | < 1e-05 | < 1e-05 |  | < 1e-05
G38A A52C | 1.04e-05 ± 2.3e-07 | < 1e-05 |  | < 1e-05 |  | 129 ± 16 | 
G37U U46G | < 1e-05 | < 1e-05 |  |  |  |  | 

Source: the supplement of paper PMC7125110
